One substance from patent publication US20150283263A1 can be followed below.

The target of this assay is CD25 (human) (UniProt P01589). Briefly: flow cytometry on Karpas299 cells (surface CD25); negative control antibody. (Flow cytometry measures light scatter and fluorescence of single cells or particles in a stream.)
CD25 (human), sequence (P01589 22-272): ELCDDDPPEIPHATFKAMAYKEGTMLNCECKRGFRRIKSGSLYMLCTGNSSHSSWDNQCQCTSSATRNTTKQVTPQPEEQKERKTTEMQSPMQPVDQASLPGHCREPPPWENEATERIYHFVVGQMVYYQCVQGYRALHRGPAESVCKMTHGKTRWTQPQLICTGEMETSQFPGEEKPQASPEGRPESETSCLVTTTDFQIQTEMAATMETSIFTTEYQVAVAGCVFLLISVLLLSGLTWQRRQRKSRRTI

With B12 anti-HIV gp120 antibody, the EC50 worked out at 537 µg/mL.

For orientation: EC50 means the concentration that produces a half-maximal response. Lower therefore signals higher potency in that assay.
